# T1: cloned Pfu DNA polymerase (Pyrococcus furiosus, UniProt P61875)
# T1 sequence (P61875 1-775): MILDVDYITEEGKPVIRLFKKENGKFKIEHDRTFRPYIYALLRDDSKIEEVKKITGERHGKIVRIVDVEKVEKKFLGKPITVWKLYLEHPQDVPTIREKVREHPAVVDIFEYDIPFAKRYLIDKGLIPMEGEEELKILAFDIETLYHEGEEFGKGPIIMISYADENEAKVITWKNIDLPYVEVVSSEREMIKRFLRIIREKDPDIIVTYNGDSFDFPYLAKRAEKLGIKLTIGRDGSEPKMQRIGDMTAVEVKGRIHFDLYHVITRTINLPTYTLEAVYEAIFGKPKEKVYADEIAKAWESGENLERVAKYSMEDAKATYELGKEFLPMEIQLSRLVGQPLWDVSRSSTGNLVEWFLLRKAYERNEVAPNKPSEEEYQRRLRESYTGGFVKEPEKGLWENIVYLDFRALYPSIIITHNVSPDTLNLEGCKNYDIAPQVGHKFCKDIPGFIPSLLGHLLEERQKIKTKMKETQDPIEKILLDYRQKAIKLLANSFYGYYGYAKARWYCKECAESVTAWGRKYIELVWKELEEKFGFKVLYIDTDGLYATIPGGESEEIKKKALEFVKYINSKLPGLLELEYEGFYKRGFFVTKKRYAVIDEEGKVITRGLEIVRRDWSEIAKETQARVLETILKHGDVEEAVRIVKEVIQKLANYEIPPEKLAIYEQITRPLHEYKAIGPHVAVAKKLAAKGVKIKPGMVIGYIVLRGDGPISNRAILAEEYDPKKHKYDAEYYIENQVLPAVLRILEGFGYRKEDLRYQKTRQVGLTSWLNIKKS
# B1: PEF: polymerase enhancing factor complex purified from Pyrococcus furiosus; predominant components P50 and P45 (protein)
# chain 1: MLHHVKLIYATKSRKLVGKKIVXXXPGSIAALDVKACEGLIRHGAEVHAVMSEAATKIIHPYAWNLPTGNPVITEITGFIEHVELAGEHENKADLILVCPATANTISKIACGIDDTPVTTVVTTAFPHIPIMIAPAMHETMYRHPIVRENIERLKKLGVEFIGPRIEEGRAKVASIDEIVYRVIKKLHKKTLEGKRVLVTAGATREYIDPIRFITNASSGKMGVALAEEADFRGAVTLIRTKGSVKAFRIRKIKLKVETVEEMLSAIENELRSKKYDVVIMAAAVSDFRPKIKAEGKIKSGRSITIELVPXNPKIIDRIKEIQPNVFLVGFKAETSKEKLIEEGKRQIERAKADLVVGNTLEAFGSEENQVVLIGRDFTKELPKMKKRELAERIWDEIEKXLS
# chain 2: MLLPDWKIRKEILIEPFSEESLQPAGYDLRVGREAFVKGKLIDVEKEGKVVIPPREYALILTLERIKLPDDVMGDMKIRSSLAREGVIGSFAWVDPGWDGNLTLMLYNASNEPVELRYGERFVQIAFIRLEGPARNPYRGNYQGSTRLAFSKRKKL
# modifications: not fully specified; X: residue not identified in the source
# notes: polymerase enhancing factor complex purified from Pyrococcus furiosus; predominant components P50 and P45
# Legend:
# Format in all cases: biochemical
# [1] = tested on: gapped-duplex calf thymus DNA; assay: DNA polymerase activity, gapped-duplex calf thymus DNA assay
# Experimental: Initially and as a control to confirm the activity of the DNA polymerase used, gapped-duplex calf thymus DNA (Pharmacia) assays were performed. The polymerase cocktail contained 50 mM Tris-HCl, pH 8.0, 5 mM MgCl2, 1 mM DTT, 50 μg/m BSA, 4% glycerol, 200 μM each dNTP, [^3H]TTP (0.5 mCi·μmole final concentration), and 250 μg/ml of activated calf thymus DNA (Pharmacia). Samples containing Pfu DNA polymerase or P. furiosus PEF were serially diluted in Pfu DNA polymerase storage buffer (50 mM Tris-HCl, pH 8.2, 0.1% NP-40, 0.1% Tween-20, 0.1 mM EDTA, 1 mM DTT, 50% glycerol) and then 1 μl of each dilution was added to 10 μl aliquots of polymerase cocktail. Polymerization reactions were conducted in triplicate for 30 minutes at 72° C. The extension reactions were quenched on ice, and then 5 μl aliquots were spotted immediately onto DE81 filters (Whatman). Unincorporated [^3H]TTP was removed by 6 washes with 2×SCC (0.3M NaCl, 30 mM sodium citrate, pH 7.0), followed by one wash with 100% ethanol. Incorporated radioactivity was measured by scintillation counting. The assay was calibrated by counting a known amount of [^3H]TTP on DE-81 filters, omitting the wash steps. One unit of polymerase activity is defined as the amount of enzyme which catalyzes the incorporation of 10 nmoles of total dNTP into polymeric form (binds to DE-81 paper) in 30 minutes at 72° C. […]
# [2] = molecular target: T1, cloned Pfu DNA polymerase; assay: 6.2 kb primer-template PCR enhancing assay
# Experimental: One embodiment of an assay used to screen for PEFs, in this case from Pyrococcus furiosus, involved amplifying a 6.2 kb target from transgenic mouse DNA (6.2 kb primer-template assay). A master PCR cocktail was prepared consisting of: 200 μM each dNTP, 2 μg/ml primer F432-21 (5′-CTA-TTG-AGT-ACG-AAC-GCC-ATC) (SEQ ID NO.: 62), 2 μg/ml primer R6656-20 (GTC-ACG-CTT-GCT-CCA-CTC-CG) (SEQ ID NO: 63), 2.5 μg/ml λAA742 DNA (transgenic mouse DNA having 40 copies of a lambda phage DNA shuttle vector), 1× cloned Pfu DNA polymerase PCR buffer (10 mM KCl, 10 mM (NH4)2SO4, 20 mM Tris-HCl (pH 8.8), 2 mM MgSO4, 0.1% (v/v) Triton X-100, and 100 μg/ml BSA), and 25 U/ml cloned Pfu DNA polymerase. Samples were diluted in 1× cloned Pfu DNA polymerase PCR buffer, and 1 μl of each diluted sample was added to 24 μl of the PCR cocktail. PCR amplifications were conducted on the RoboCycler 96 Temperature Cycler (Stratagene), using the following conditions: 96° C. for 45 s (1 cycle)/96° C. for 45 s; 60° C. for 45 s; 72° C. for 14 min. (35 cycles)/72° C. for 10 min. (1 cycle). PCR products (10 μl/lane) are run out on 1% agarose gels and PCR product bands visualized by ethidium bromide staining. […] When PCR enhancement is due to the presence of PEFs, rather than contaminating endogenous DNA polymerase activity, amplifications performed in the absence of […] yield no PCR product. Moreover, PCR amplifications performed in the absence of exogenous DNA template should yield no PCR product when the PEF sample lacks contaminating target DNA.
# [3] = Reverse phase HPLC analysis of dUTP conversion; conditions: 72° C.
# Experimental: (§1) The similarity of P45 to dCTP deaminases prompted us to test whether dCTP or other nucleotide triphosphates were substrates of PEF/P45. PEF was incubated with dCTP or dUTP and the reaction products were separated by reverse phase HPLC. Reaction mixtures (50 μl) containing 1× cloned Pfu polymerase buffer, 10 mM dCTP or dUTP, and 700 ng PEF (or 5 μl of cloned p45 (˜100 ng) or nothing (neg. control)) were incubated at 72° C. for 1 hour. The samples were injected on a […] Waters Delta-pak C-18 column (300 angstrom/15 μm), equilibrated in 50 mM triethylammonium acetate, pH (7.0) (A). Products were eluted with acetonitrile (B) at 2 ml/min. using the following gradient: 0% B for 5 minutes, 0-10% B over 20 minutes. Absorbence of the eluate was monitored with a photodiode array detector, and peak areas were integrated at 260 nm.
# In a separate Western assay, samples from Thermus thermophilis were run out on an SDS-PAGE gel and probed with the rP45 antisera. […] The PEF as dUTPase activity in these samples was further confirmed by a dUTP conversion assay employing reverse phase HPLC.
# [4] = Reverse phase HPLC analysis of dCTP conversion
# Experimental: as §1
molecule,measurement,setting,value
B1,DNA polymerase activity (in words),[1],no significant DNA polymerase activity
same,excess PEF giving lower PCR product yield,[2],≥ 900 ng/100 μl
same,PEF concentration range enhancing performance of Pfu DNA polymerase in PCR,"[2]; 10,000-fold range",0.09-900 ng/100 μl
same,very low PEF concentration giving lower PCR product yield,[2]; listed as substantially homogeneous PEF,< 9 pg/100 μl
same,dUTP peak after incubation,"[3]; 10 mM dUTP, one hour",0.1 % total peak area
same,new peak eluting at 4.400 minutes (dUMP),"[3]; 10 mM dUTP, one hour",98 % total peak area
same,dUTP converted,"[3]; 1 hour, 700 ng PEF",100%
same,deamination of dCTP,[4],No deamination
same,dCTP converted,"[4]; 1 hour, 72° C., 700 ng PEF",16.6%
